Experiments:
Test in all cases: Kinase Profiling Assay
Assay type in all cases: biochemical
Details in all cases: for % activity: 100 μM
[1] = target: KDR(h) (Homo sapiens, UniProt P35968)
[2] = target: EphA7(h) (Homo sapiens, UniProt Q15375)
[3] = target: T1, Txk(h) (Homo sapiens, UniProt P42681)
T1 sequence (P42681 1-527): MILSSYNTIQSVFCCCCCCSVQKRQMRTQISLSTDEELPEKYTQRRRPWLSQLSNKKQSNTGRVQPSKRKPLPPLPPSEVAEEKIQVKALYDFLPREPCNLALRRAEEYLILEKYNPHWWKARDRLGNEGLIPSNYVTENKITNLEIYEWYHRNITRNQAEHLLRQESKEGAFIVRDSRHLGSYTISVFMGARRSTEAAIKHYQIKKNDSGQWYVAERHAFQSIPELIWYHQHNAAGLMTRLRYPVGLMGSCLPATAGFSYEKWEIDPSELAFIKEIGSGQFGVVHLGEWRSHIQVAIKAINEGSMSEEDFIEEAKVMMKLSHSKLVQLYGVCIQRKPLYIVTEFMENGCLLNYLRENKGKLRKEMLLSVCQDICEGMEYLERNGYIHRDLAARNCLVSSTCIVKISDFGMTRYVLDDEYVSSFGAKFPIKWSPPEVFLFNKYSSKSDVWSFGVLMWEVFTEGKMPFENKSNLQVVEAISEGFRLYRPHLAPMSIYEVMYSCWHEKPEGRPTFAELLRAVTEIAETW

[4] = target: T2, DRAK1(h) (Homo sapiens, UniProt Q9UEE5)
T2 sequence (Q9UEE5 1-414): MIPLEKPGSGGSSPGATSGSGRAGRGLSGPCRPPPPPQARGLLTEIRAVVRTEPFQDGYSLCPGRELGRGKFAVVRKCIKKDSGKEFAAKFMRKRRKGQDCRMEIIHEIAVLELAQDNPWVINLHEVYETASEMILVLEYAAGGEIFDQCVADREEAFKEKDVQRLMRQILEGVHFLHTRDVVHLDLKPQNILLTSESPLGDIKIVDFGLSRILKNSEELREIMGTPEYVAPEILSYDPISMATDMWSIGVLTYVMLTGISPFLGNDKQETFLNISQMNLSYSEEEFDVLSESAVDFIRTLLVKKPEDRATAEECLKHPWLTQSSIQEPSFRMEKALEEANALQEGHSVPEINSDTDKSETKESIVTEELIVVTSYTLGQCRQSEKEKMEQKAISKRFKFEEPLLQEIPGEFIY

[5] = target: T3, ALK4(h) (Homo sapiens, UniProt P36896)
T3 sequence (P36896 24-505): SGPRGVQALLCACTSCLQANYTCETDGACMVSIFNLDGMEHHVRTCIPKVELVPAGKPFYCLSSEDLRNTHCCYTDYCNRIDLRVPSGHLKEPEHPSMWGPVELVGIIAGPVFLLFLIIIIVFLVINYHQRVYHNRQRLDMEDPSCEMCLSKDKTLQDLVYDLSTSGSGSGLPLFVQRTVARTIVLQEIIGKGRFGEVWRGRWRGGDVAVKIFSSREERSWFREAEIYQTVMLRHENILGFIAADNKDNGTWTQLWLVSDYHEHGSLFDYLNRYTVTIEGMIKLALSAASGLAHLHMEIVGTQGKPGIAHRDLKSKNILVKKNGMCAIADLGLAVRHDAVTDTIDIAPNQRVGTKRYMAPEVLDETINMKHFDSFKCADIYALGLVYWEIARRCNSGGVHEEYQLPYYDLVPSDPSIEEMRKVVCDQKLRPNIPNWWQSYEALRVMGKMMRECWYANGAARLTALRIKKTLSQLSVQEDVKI

[6] = target: Met(Y1248D)(h) (Homo sapiens, UniProt P08581, Y1230D)
[7] = target: T4, GCK(h) (Homo sapiens, UniProt Q12851)
T4 sequence (Q12851 1-820): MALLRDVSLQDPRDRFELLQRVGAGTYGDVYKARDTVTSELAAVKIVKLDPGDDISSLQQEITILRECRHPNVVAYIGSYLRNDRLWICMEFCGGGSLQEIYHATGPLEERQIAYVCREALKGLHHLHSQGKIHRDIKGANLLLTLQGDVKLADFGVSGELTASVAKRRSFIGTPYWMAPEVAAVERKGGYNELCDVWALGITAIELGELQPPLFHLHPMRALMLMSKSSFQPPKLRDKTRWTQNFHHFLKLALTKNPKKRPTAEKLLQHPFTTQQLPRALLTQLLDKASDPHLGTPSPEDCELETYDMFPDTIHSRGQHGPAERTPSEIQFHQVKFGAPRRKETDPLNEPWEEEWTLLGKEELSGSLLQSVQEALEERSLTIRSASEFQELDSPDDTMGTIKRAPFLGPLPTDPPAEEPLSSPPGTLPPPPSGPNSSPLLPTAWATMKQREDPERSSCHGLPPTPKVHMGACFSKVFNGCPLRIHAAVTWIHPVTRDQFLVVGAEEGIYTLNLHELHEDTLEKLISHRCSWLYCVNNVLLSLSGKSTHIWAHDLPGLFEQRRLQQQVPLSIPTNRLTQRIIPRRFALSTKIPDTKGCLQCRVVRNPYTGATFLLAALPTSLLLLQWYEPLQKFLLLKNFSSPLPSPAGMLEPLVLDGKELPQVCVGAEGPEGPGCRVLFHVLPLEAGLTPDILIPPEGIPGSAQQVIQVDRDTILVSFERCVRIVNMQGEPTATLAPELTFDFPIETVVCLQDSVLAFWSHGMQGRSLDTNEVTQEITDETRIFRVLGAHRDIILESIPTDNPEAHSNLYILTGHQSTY

EphA7(h), sequence (Q15375 28-998): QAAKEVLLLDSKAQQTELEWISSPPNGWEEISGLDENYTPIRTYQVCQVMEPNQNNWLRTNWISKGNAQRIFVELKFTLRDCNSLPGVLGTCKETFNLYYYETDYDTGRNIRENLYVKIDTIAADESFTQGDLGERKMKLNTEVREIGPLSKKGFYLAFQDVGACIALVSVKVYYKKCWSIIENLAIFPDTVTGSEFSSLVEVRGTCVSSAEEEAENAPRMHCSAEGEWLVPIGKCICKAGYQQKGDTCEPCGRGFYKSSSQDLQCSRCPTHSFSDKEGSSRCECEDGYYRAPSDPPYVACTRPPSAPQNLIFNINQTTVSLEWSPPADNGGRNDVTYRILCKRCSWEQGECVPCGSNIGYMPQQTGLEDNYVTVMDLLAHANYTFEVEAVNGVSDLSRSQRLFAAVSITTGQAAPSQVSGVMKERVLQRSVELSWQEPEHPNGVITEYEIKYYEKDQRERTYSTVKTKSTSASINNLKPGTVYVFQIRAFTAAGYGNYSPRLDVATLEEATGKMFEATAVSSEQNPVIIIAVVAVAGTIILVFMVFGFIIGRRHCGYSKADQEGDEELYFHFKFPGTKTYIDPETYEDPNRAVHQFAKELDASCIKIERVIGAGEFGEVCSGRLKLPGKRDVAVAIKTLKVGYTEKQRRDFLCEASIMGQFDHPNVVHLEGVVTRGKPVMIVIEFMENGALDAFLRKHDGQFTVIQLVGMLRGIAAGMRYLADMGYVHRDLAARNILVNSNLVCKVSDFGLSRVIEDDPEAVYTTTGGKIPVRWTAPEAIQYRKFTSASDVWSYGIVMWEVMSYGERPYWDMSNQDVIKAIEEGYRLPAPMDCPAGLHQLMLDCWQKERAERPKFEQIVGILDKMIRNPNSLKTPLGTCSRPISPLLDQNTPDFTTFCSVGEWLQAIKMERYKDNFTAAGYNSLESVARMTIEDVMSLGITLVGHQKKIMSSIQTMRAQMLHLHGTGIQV
KDR(h), sequence (P35968 20-1356): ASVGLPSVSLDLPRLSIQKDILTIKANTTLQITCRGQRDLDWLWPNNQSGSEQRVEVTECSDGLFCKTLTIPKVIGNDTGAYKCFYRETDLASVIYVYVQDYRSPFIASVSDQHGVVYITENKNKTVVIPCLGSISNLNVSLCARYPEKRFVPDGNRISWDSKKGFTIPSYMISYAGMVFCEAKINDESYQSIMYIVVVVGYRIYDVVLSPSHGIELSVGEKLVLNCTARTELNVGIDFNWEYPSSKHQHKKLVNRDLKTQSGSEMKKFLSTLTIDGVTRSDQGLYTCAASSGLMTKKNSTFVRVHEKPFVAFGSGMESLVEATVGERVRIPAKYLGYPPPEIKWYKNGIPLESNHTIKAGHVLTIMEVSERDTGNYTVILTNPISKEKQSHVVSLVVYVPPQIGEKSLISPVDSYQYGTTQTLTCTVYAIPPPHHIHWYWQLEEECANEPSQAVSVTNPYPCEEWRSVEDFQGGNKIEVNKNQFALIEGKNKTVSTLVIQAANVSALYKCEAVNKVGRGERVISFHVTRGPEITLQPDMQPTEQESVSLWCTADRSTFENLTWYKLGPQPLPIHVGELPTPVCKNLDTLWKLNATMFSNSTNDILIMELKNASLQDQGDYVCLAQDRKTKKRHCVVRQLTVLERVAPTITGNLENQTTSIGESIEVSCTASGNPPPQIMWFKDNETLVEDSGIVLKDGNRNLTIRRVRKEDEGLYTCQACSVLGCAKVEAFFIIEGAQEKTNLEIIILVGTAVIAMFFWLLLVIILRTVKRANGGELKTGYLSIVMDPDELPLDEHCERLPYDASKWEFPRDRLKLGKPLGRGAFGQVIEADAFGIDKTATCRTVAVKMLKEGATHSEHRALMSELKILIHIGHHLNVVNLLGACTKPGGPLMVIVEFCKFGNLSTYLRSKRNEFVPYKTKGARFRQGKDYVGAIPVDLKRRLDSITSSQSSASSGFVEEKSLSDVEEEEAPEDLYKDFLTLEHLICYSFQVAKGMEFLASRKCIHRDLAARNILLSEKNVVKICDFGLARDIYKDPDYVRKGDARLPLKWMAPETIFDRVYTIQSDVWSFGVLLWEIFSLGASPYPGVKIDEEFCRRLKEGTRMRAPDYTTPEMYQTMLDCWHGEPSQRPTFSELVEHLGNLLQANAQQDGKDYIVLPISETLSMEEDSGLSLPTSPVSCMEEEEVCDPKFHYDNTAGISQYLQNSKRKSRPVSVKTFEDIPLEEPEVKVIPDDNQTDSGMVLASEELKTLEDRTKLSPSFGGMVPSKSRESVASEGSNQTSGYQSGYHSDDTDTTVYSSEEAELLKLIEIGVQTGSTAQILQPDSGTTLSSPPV

| Substance | % activity [1] [%] | % activity [2] [%] | % activity [3] [%] | % activity [4] [%] | % activity [5] [%] | % activity [6] [%] | % activity [7] [%] | activity at 100 µM [1] [%] | activity at 100 µM [2] [%] | activity at 100 µM [3] [%] | activity at 100 µM [4] [%] | activity at 100 µM [5] [%] | activity at 100 µM [6] [%] | activity at 100 µM [7] [%] |
| --- | --- | --- | --- | --- | --- | --- | --- | --- | --- | --- | --- | --- | --- | --- |
| YARAAARQARAKALNRQLGVA (Mammalian) [MMI-0200] | 110 | 220 | 98 | 34 | 152 | 118 | 99 | – | – | – | – | – | – | – |
| H-YARAAARQARAKALARQLGVAA-OH [MMI-0100] | – | – | – | – | – | – | – | 100 | 193 | 87 | 47 | 124 | 87 | 98 |
| HRRIKAWLKKIKALARQLGVAA (Mammalian) [MMI-0500] | 15 | 189 | 10 | 8 | 81 | 218 | 30 | – | – | – | – | – | – | – |
